Measured values from the supplement of paper PMC7877785.
± gives the uncertainty stated by the source.

Assay: self-splicing fitness, log relative to wild type (ln ratio); higher = more splicing; Tetrahymena group I intron in knt gene, E. coli kanamycin selection, DiMSum; sequences stand for … in CUCUCU…GGAGGGAAAAGUUAUCAGGCAUGCACCUGGUAGCUAGUCUUUAAACCAAUAGAUUGCAUCGGUUUAAAAGGCAAGACCGUCAAAUUGCGGGAAAGGGGUCAACAGCCGUUCAGUACCAAGUCUCAGGGGAAACUUUGAGAUGGCCUUGCAAAGGGUAUGGUAAUAAGCUGACGGACAUGGUCCUAACCACGCAGCCAAGUCCUAAGUCAACAGAUCUUCUGUUGAUAUGGAUGCAGUUCACAGACUAAAUGUCGGUCGGGGAAGAUGUAUUCUUCUCAUAAGAUAUAGUCGGACCUCUCCUUAAUGGGAGCUAGCGGAUGAAGUGAUGCAACACUGGAGCCGCUGGGAACUAAUUUGUAUGCGAAAGUAUAUUGAUUAGUUUUGGAGUACUCGUGGUCG
Procedure, shortened: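 Library with all eight P1ex-region intron nucleotides randomised, intron inside the knt kanamycin-resistance gene on pET-22b(+), in E. coli BL21(DE3). Cells grew overnight at 37°C or 30°C on LB agar with or without 25 μg/mL kanamycin (plus 100 μg/mL carbenicillin, 50 μM IPTG, 0.2% rhamnose), in six replicate transformations. Pooled colonies were amplicon-sequenced on Illumina HiSeq 2500. DiMSum fitness is the error-weighted combination of wild-type-normalised replicate fold changes, kanamycin versus none.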

Sequence	self-splicing fitness (ln) (30 °C)	self-splicing fitness (ln) (37 °C)
UUUCAGCAAUAUUACGGCAA	-0.476 ± 0.089	-0.0559 ± 0.11
UUUCAGCAAUAUUACGGCCG	-0.936 ± 0.17	-0.968 ± 0.26
UUUCAGCAAUAUUACGGCUA	0.189 ± 0.14	0.336 ± 0.12
UUUCAGCAAUAUUACGGUGU	-2.91 ± 0.13	-2.15 ± 0.18
UUUCAGCAAUAUUACGUAAC	-3.2 ± 0.23	-2.4 ± 0.27
UUUCAGCAAUAUUACGUACU	-1.49 ± 0.15	-0.647 ± 0.17
UUUCAGCAAUAUUACGUGUU	-3.42 ± 0.13	-2.87 ± 0.14
UUUGAGCAAUAUUACGAACA	-2.9 ± 0.23	-2.15 ± 0.21
UUUGAGCAAUAUUACGAACC	-2.5 ± 0.35	–
UUUGAGCAAUAUUACGAAGU	–	-2.67 ± 0.3
UUUGAGCAAUAUUACGAUAC	-3.55 ± 0.48	–
UUUGAGCAAUAUUACGAUGG	-2.08 ± 0.17	-1.77 ± 0.2
UUUGAGCAAUAUUACGAUUU	-3.28 ± 0.24	-2.05 ± 0.27
UUUGAGCAAUAUUACGCAGG	-2.99 ± 0.21	-1.34 ± 0.18
UUUGAGCAAUAUUACGCAUG	-0.647 ± 0.12	-0.524 ± 0.19
UUUGAGCAAUAUUACGCAUU	-2.65 ± 0.27	-1.09 ± 0.2
UUUGAGCAAUAUUACGCCUU	–	-2.2 ± 0.45
UUUGAGCAAUAUUACGCUGU	-3.01 ± 0.27	–
UUUGAGCAAUAUUACGGAUC	-3.24 ± 0.37	-2.24 ± 0.44
UUUGAGCAAUAUUACGGCAU	-1.56 ± 0.33	-1.62 ± 0.3
UUUGAGCAAUAUUACGGGGA	–	-2.42 ± 0.41

Sequence	self-splicing fitness (ln) (30 °C)	self-splicing fitness (ln) (37 °C)
UUUGAGCAAUAUUACGUAGC	-1.83 ± 0.32	–
UUUGAGCAAUAUUACGUGCA	-3.05 ± 0.21	-1.96 ± 0.18
UUUGAGCAAUAUUACGUUUA	-3.32 ± 0.24	-2.21 ± 0.23
UUUUAGCAAUAUUACGAACG	-0.665 ± 0.11	0.449 ± 0.18
UUUUAGCAAUAUUACGAACU	-1.75 ± 0.34	-0.164 ± 0.23
UUUUAGCAAUAUUACGAAGA	-1.85 ± 0.31	-1.21 ± 0.22
UUUUAGCAAUAUUACGACGG	-0.13 ± 0.14	-0.173 ± 0.18
UUUUAGCAAUAUUACGACUA	-0.401 ± 0.18	0.109 ± 0.14
UUUUAGCAAUAUUACGACUU	-1.64 ± 0.32	-1.14 ± 0.33
UUUUAGCAAUAUUACGAGAG	-1.12 ± 0.18	-0.225 ± 0.21
UUUUAGCAAUAUUACGAUCG	-0.15 ± 0.26	–
UUUUAGCAAUAUUACGAUGU	-2.19 ± 0.23	-1.6 ± 0.16
UUUUAGCAAUAUUACGCAUU	-2.39 ± 0.11	-1.27 ± 0.15
UUUUAGCAAUAUUACGCGCG	-0.432 ± 0.11	-0.122 ± 0.15
UUUUAGCAAUAUUACGCUUG	-0.327 ± 0.2	-0.13 ± 0.19
UUUUAGCAAUAUUACGGACU	-2.67 ± 0.39	-0.49 ± 0.35
UUUUAGCAAUAUUACGGUCU	-2.23 ± 0.17	-1.35 ± 0.2
UUUUAGCAAUAUUACGUAUU	-3.2 ± 0.35	-1.04 ± 0.38
UUUUAGCAAUAUUACGUGAA	-1.14 ± 0.074	-0.89 ± 0.1
UUUUAGCAAUAUUACGUGAG	-0.331 ± 0.12	-0.445 ± 0.22
UUUUAGCAAUAUUACGUGAU	-2.76 ± 0.31	-2.19 ± 0.32
